According to the Human Domainome abundance scans (Beltran et al. 2025):
± gives the uncertainty stated by the source.

B1: Transcription factor SOX-11, residues 50 to 117; numbered along this chain, P35716 (parent)
chain: KRPMNAFMVWSKIERRKIMEQSPDMHNAEISKRLGKRWKMLKDSEKIPFIREAERLRLKHMADYPDYK

Variants of: B1
Experiment: abundance fitness (aPCA) (normalised: wild type 0, dead -1); higher = more abundant; growth selection in yeast, the domain comes from the species named
Conditions: Homo sapiens

Variant	abundance fitness
L56Y	-0.386 ± 0.078
L56R	-0.532 ± 0.084
F7N	-0.795 ± 0.09
F7Y	-0.203 ± 0.059
F7K	-0.887 ± 0.21
S22E	-0.112 ± 0.11
P48N	-0.598 ± 0.093
P48W	-0.577 ± 0.24
P48S	-0.617 ± 0.086
P48L	-0.572 ± 0.098
P48F	-0.285 ± 0.075
P48K	-0.69 ± 0.2
G35S	0.315 ± 0.043
G35E	0.519 ± 0.1
G35Y	0.126 ± 0.058
G35L	0.162 ± 0.055
K42M	-0.161 ± 0.11
K42H	-0.235 ± 0.067
V9Y	-0.558 ± 0.069
V9P	-0.891 ± 0.16
K39E	-0.075 ± 0.17

Variant	abundance fitness
W38A	-0.568 ± 0.09
W38P	-1 ± 0.17
Q21D	-0.267 ± 0.067
I50S	-0.509 ± 0.057
I50P	-0.617 ± 0.14
I50W	-0.437 ± 0.14
I50N	-0.323 ± 0.069
M4S	-0.334 ± 0.052
M4V	0.005 ± 0.051
R37M	-0.058 ± 0.11
R37T	0.205 ± 0.06
R37C	-0.346 ± 0.057
M25F	-0.571 ± 0.084
M25S	-0.53 ± 0.057
K12S	0.074 ± 0.053
K12P	-0.746 ± 0.18
D24V	-0.643 ± 0.085
D24A	-0.093 ± 0.069
K59I	-0.054 ± 0.054
K59L	0.12 ± 0.053
K59C	-0.099 ± 0.055

Variant	abundance fitness
K59A	0.087 ± 0.062
D66G	-0.027 ± 0.12
D66I	-0.382 ± 0.13
D66C	-0.278 ± 0.13
R55D	-0.119 ± 0.058
N27A	0.177 ± 0.064
N27D	0.403 ± 0.06
N27L	-0.279 ± 0.062
E20Y	-0.781 ± 0.1
E20R	-0.705 ± 0.12
K17A	-0.484 ± 0.096
K17W	-1.17 ± 0.34
K17F	-0.531 ± 0.065
W10L	-0.819 ± 0.095
W10I	-0.961 ± 0.099
W10Y	-0.375 ± 0.065
I18E	-0.355 ± 0.17
I18V	-0.307 ± 0.059
I18D	-0.741 ± 0.12
I18K	-0.856 ± 0.29
I18T	-0.884 ± 0.17

Variant	abundance fitness
I18H	-0.918 ± 0.17
I18R	-0.945 ± 0.12
I18G	-0.772 ± 0.075
I18W	-0.256 ± 0.11
D63N	0.113 ± 0.26
R16Q	0.199 ± 0.21
R16F	-0.319 ± 0.058
M61N	0.116 ± 0.053
M61E	0.046 ± 0.12
M61F	-0.292 ± 0.06
M40S	0.023 ± 0.048
M40P	-0.711 ± 0.18
M40V	-0.665 ± 0.069
I30Q	-0.797 ± 0.23
I30G	-0.67 ± 0.089
R2G	0.03 ± 0.049
M19H	-0.187 ± 0.079
M19E	-0.069 ± 0.16
H26G	0.22 ± 0.047
H26Y	-0.368 ± 0.059
